# Molecular target: Flt1/VEGFR1 (human) (UniProt P17948)
# Assay: cell-based or functional assay
# Sequence of UniProt P17948 (P17948 27-1338): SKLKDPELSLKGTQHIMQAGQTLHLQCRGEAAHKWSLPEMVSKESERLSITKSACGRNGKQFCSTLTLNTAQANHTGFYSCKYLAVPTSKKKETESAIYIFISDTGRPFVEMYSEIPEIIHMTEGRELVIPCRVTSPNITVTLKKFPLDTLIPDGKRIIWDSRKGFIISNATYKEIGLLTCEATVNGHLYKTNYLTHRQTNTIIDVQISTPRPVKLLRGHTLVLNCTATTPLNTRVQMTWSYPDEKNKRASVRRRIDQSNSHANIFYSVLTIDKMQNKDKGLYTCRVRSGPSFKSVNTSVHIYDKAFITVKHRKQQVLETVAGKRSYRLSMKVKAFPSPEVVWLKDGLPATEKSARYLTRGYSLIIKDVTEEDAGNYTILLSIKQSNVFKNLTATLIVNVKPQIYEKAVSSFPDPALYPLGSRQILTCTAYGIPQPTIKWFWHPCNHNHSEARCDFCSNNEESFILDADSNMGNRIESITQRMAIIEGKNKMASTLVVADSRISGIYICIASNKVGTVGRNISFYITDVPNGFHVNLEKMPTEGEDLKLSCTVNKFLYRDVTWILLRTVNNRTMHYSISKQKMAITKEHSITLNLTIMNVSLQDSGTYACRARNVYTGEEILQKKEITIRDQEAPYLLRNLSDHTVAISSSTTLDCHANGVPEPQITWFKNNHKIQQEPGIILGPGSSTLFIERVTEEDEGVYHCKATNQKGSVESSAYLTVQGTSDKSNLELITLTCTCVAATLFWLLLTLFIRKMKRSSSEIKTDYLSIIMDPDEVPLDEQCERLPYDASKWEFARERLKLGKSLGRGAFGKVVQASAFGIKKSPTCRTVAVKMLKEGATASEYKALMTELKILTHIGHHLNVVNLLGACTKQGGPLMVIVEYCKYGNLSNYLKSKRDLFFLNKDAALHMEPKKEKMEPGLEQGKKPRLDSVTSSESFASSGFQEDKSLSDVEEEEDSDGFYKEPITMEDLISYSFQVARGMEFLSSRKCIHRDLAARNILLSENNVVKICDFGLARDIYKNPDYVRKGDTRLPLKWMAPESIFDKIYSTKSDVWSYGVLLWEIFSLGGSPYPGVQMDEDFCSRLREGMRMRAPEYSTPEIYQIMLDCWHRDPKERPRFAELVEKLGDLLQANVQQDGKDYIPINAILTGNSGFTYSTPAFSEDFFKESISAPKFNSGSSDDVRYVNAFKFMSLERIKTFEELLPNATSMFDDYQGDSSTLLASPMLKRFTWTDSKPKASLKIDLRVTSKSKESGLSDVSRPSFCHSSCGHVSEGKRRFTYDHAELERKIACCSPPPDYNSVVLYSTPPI
substance,measurement,value
placental growth factor (ligand),HUVEC buds containing multiple filopodia,250%

# From patent US20110223183A1
